Values of other authors as cited in publication PMC10977282.

Target: DR5 (Homo sapiens) (UniProt O14763)

Kd: < 400 nM
Substance: OPG (from UniProt O00300)
